Test results from PMC5715787, “Structural basis for antibody recognition of the NANP repeats in Plasmodium falciparum circumsporozoite protein” (Proceedings of the National Academy of Sciences of the …, 2017).

Molecular target: T1, Ac-…-NH2 peptide (P. falciparum)
T1 sequence (peptide, N-terminal acetyl group; C-terminal NH2 group (amide)): NPNVDPNANPNV
Assay: ITC; MicroCal Auto-iTC200; triplicate (or duplicate) experiments; details in SI

B1: Fab317 (Fab, V domains shown)
VH: QMQLVESGGGVVQPGRSLRLSCTASGFTFSTYAMHWVRQSPGQGLQWVAVISYHSTNKYYEDSVRGRFTISRDNSKNTLYLQMNSLRAEDTAVYYCARDGYSSSFFDFWGQGTLVTVSS
VL: DIQMTQSPSTLSASVGDRVAITCRASQSISRWLAWYQQQPGKAPKLLMSGASVLESGVPSRFSGSGSGTEFTLTISSLQPDDFATYYCQHYNSYFVTFGQGTKVEIK
For B1, the Kd was 12.1 µM, the dH was -9.66 kcal/mol and the stoichiometry N was 1.72.
